The series relates to Escherichia coli TOP10. Description: shrunken log2 fold change of peptide-encoding DNA abundance (4.5 h post-induction vs induction); higher = less antimicrobial activity (less host growth inhibition). Conditions: time post-induction: 4.5 h; library: site-saturation at positions 5, 18, 19, 20.
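Note: peptides expressed intracellularly from a pBAD plasmid library in pooled LB shake-flask culture, induced with 0.3% L-arabinose, DNA abundance read by NGS, three biological replicates, DESeq2 with apeglm shrinkage.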

Turning to RRIRQRPPRLPRPRPRPSCFPRP, the “shrunken log2 fold change” value was -0.529.

For RRIRLRPPRLPRPRPRPHFYPRP, the “shrunken log2 fold change” value is -0.303.

Turning to RRIRWRPPRLPRPRPRPFDDPRP, the “shrunken log2 fold change” value is -0.121.

Consider RRIRVRPPRLPRPRPRPLCPPRP, for which the “shrunken log2 fold change” value was -0.153.

Regarding RRIRARPPRLPRPRPRPSMQPRP, the “shrunken log2 fold change” value came out at 0.352.

Turning to RRIRSRPPRLPRPRPRPVCSPRP, the “shrunken log2 fold change” value worked out at 0.0822.

For RRIRFRPPRLPRPRPRPRSCPRP, the “shrunken log2 fold change” value worked out at 0.155.

As to RRIRARPPRLPRPRPRPFPLPRP, the “shrunken log2 fold change” value is -0.0297.

On to RRIRTRPPRLPRPRPRPNHCPRP, for which the “shrunken log2 fold change” value is -0.479.

Regarding RRIRRRPPRLPRPRPRPCMDPRP, the “shrunken log2 fold change” value is -0.229.

Consider RRIRTRPPRLPRPRPRPEKNPRP, for which the “shrunken log2 fold change” value amounted to 0.0495.

For the sequence RRIRARPPRLPRPRPRPVTWPRP, the “shrunken log2 fold change” value is 0.291.

As to RRIRLRPPRLPRPRPRPNIIPRP, the “shrunken log2 fold change” value is -0.313.

As to RRIRPRPPRLPRPRPRPTHDPRP, the “shrunken log2 fold change” value was determined as 0.258.

Regarding RRIRTRPPRLPRPRPRPLKDPRP, the “shrunken log2 fold change” value worked out at 0.0122.

RRIRARPPRLPRPRPRPIQNPRP: the “shrunken log2 fold change” value is 0.376.

In the case of RRIRARPPRLPRPRPRPLPSPRP, the “shrunken log2 fold change” value came out at 0.353.

Regarding RRIRDRPPRLPRPRPRPVKMPRP, the “shrunken log2 fold change” value is -0.0606.

Regarding RRIRNRPPRLPRPRPRPTKVPRP, the “shrunken log2 fold change” value is -0.153.

In the case of RRIRERPPRLPRPRPRPEEFPRP, the “shrunken log2 fold change” value was -0.0217.

With RRIRQRPPRLPRPRPRPESDPRP, the “shrunken log2 fold change” value is 0.319.

For RRIRPRPPRLPRPRPRPFHCPRP, the “shrunken log2 fold change” value is -0.297.

On to RRIRHRPPRLPRPRPRPEALPRP, for which the “shrunken log2 fold change” value was -0.0062.

RRIRVRPPRLPRPRPRPLSCPRP: the “shrunken log2 fold change” value was -0.307.

In the case of RRIRDRPPRLPRPRPRPQGAPRP, the “shrunken log2 fold change” value was 0.244.

On to RRIRERPPRLPRPRPRPMQEPRP, for which the “shrunken log2 fold change” value was determined as 0.216.

Consider RRIRDRPPRLPRPRPRPRMGPRP, for which the “shrunken log2 fold change” value turned out to be 0.161.

With RRIRGRPPRLPRPRPRPQHAPRP, the “shrunken log2 fold change” value was 0.797.

In the case of RRIRTRPPRLPRPRPRPVDDPRP, the “shrunken log2 fold change” value is -0.018.

Consider RRIRVRPPRLPRPRPRPTNCPRP, for which the “shrunken log2 fold change” value is -0.075.

For the sequence RRIRIRPPRLPRPRPRPHHMPRP, the “shrunken log2 fold change” value is -1.2.

As for RRIRQRPPRLPRPRPRPEQSPRP, the “shrunken log2 fold change” value worked out at 0.142.

For the sequence RRIRYRPPRLPRPRPRPNPPPRP, the “shrunken log2 fold change” value was found to be 0.0395.

For RRIRPRPPRLPRPRPRPYGPPRP, the “shrunken log2 fold change” value is -0.37.

RRIRQRPPRLPRPRPRPETRPRP: the “shrunken log2 fold change” value is -0.0113.

As for RRIRCRPPRLPRPRPRPELGPRP, the “shrunken log2 fold change” value turned out to be 0.211.

Regarding RRIRCRPPRLPRPRPRPALGPRP, the “shrunken log2 fold change” value turned out to be 0.38.

As to RRIRNRPPRLPRPRPRPFQFPRP, the “shrunken log2 fold change” value is -0.0984.

Take RRIRTRPPRLPRPRPRPPFSPRP: the “shrunken log2 fold change” value is 0.0411.

Consider RRIRYRPPRLPRPRPRPCPQPRP, for which the “shrunken log2 fold change” value is -0.0849.

RRIRDRPPRLPRPRPRPSYAPRP: the “shrunken log2 fold change” value is -0.0918.

In the case of RRIRRRPPRLPRPRPRPWDEPRP, the “shrunken log2 fold change” value is 0.0108.

RRIRYRPPRLPRPRPRPDPEPRP: the “shrunken log2 fold change” value is -0.345.

In the case of RRIRGRPPRLPRPRPRPLKIPRP, the “shrunken log2 fold change” value is 0.365.

For RRIRYRPPRLPRPRPRPKSQPRP, the “shrunken log2 fold change” value was -0.176.

As for RRIRTRPPRLPRPRPRPAWIPRP, the “shrunken log2 fold change” value is -0.27.

As to RRIRVRPPRLPRPRPRPNKFPRP, the “shrunken log2 fold change” value is -0.255.

RRIRKRPPRLPRPRPRPNQFPRP: the “shrunken log2 fold change” value turned out to be 0.103.

For RRIRSRPPRLPRPRPRPSASPRP, the “shrunken log2 fold change” value turned out to be 0.0953.

As to RRIRKRPPRLPRPRPRPWHIPRP, the “shrunken log2 fold change” value is -0.0551.

Consider RRIRYRPPRLPRPRPRPIRKPRP, for which the “shrunken log2 fold change” value was -0.0667.

As to RRIRIRPPRLPRPRPRPLGKPRP, the “shrunken log2 fold change” value was -0.248.

As to RRIRWRPPRLPRPRPRPDGNPRP, the “shrunken log2 fold change” value was 0.276.

Take RRIRWRPPRLPRPRPRPTWWPRP: the “shrunken log2 fold change” value amounted to 0.79.

Regarding RRIRIRPPRLPRPRPRPERIPRP, the “shrunken log2 fold change” value worked out at 0.0552.

RRIRKRPPRLPRPRPRPLVEPRP: the “shrunken log2 fold change” value was 0.734.

Turning to RRIRTRPPRLPRPRPRPCWAPRP, the “shrunken log2 fold change” value was -0.0904.

Regarding RRIRPRPPRLPRPRPRPAFCPRP, the “shrunken log2 fold change” value stood at 0.104.

On to RRIRHRPPRLPRPRPRPQWIPRP, for which the “shrunken log2 fold change” value was -0.031.

Turning to RRIRGRPPRLPRPRPRPDKHPRP, the “shrunken log2 fold change” value was 0.0564.

On to RRIRWRPPRLPRPRPRPFPPPRP, for which the “shrunken log2 fold change” value was -0.0255.

For the sequence RRIRHRPPRLPRPRPRPFTSPRP, the “shrunken log2 fold change” value is -0.197.

For the sequence RRIRPRPPRLPRPRPRPYEDPRP, the “shrunken log2 fold change” value was -0.163.

For RRIRNRPPRLPRPRPRPYWRPRP, the “shrunken log2 fold change” value was -0.312.

For the sequence RRIRERPPRLPRPRPRPHRPPRP, the “shrunken log2 fold change” value was -0.123.

Consider RRIRCRPPRLPRPRPRPMQNPRP, for which the “shrunken log2 fold change” value was determined as 0.311.

On to RRIRERPPRLPRPRPRPPEIPRP, for which the “shrunken log2 fold change” value was found to be 0.115.

With RRIRWRPPRLPRPRPRPLLVPRP, the “shrunken log2 fold change” value was determined as 0.172.

On to RRIRVRPPRLPRPRPRPIIVPRP, for which the “shrunken log2 fold change” value was 0.0713.

Turning to RRIRTRPPRLPRPRPRPRCAPRP, the “shrunken log2 fold change” value was found to be 0.0538.

Take RRIRNRPPRLPRPRPRPPNWPRP: the “shrunken log2 fold change” value worked out at 0.217.

As to RRIRERPPRLPRPRPRPYMWPRP, the “shrunken log2 fold change” value is -0.452.

With RRIRIRPPRLPRPRPRPFNKPRP, the “shrunken log2 fold change” value is -0.179.

On to RRIRFRPPRLPRPRPRPCCQPRP, for which the “shrunken log2 fold change” value is -0.439.

Turning to RRIRVRPPRLPRPRPRPAEWPRP, the “shrunken log2 fold change” value came to 0.129.

In the case of RRIRCRPPRLPRPRPRPNPWPRP, the “shrunken log2 fold change” value turned out to be 0.017.

Regarding RRIRFRPPRLPRPRPRPRQKPRP, the “shrunken log2 fold change” value was determined as 0.363.

As for RRIRPRPPRLPRPRPRPAHPPRP, the “shrunken log2 fold change” value stood at 0.273.

In the case of RRIRMRPPRLPRPRPRPTKVPRP, the “shrunken log2 fold change” value came to 0.126.

Consider RRIRRRPPRLPRPRPRPMKQPRP, for which the “shrunken log2 fold change” value was determined as 0.134.

Regarding RRIRGRPPRLPRPRPRPGDSPRP, the “shrunken log2 fold change” value stood at 0.276.

In the case of RRIRHRPPRLPRPRPRPPYIPRP, the “shrunken log2 fold change” value was -0.175.

On to RRIRARPPRLPRPRPRPSPGPRP, for which the “shrunken log2 fold change” value was determined as 0.284.

RRIRLRPPRLPRPRPRPRDGPRP: the “shrunken log2 fold change” value turned out to be 1.06.

On to RRIRDRPPRLPRPRPRPPSGPRP, for which the “shrunken log2 fold change” value is 0.364.

For RRIRRRPPRLPRPRPRPEVYPRP, the “shrunken log2 fold change” value is 0.0769.

Take RRIRGRPPRLPRPRPRPPAWPRP: the “shrunken log2 fold change” value was 1.34.

Consider RRIRERPPRLPRPRPRPYIIPRP, for which the “shrunken log2 fold change” value is -0.837.

Take RRIRFRPPRLPRPRPRPAYSPRP: the “shrunken log2 fold change” value was found to be 0.00204.

Consider RRIRKRPPRLPRPRPRPTKAPRP, for which the “shrunken log2 fold change” value came out at 0.647.

Take RRIRTRPPRLPRPRPRPLYQPRP: the “shrunken log2 fold change” value was -0.375.

As to RRIRNRPPRLPRPRPRPPYIPRP, the “shrunken log2 fold change” value was -0.335.

Consider RRIRERPPRLPRPRPRPPRLPRP, for which the “shrunken log2 fold change” value came out at 0.178.

With RRIRPRPPRLPRPRPRPQCIPRP, the “shrunken log2 fold change” value was -0.182.

For the sequence RRIRIRPPRLPRPRPRPGWCPRP, the “shrunken log2 fold change” value is -0.082.

Regarding RRIRYRPPRLPRPRPRPGSLPRP, the “shrunken log2 fold change” value is -0.0848.

Take RRIRFRPPRLPRPRPRPFWWPRP: the “shrunken log2 fold change” value is 0.398.

For RRIRGRPPRLPRPRPRPKYKPRP, the “shrunken log2 fold change” value stood at 0.0104.

Regarding RRIRVRPPRLPRPRPRPNRRPRP, the “shrunken log2 fold change” value is -0.0977.

Consider RRIRTRPPRLPRPRPRPFHEPRP, for which the “shrunken log2 fold change” value was -0.126.

Turning to RRIRARPPRLPRPRPRPASLPRP, the “shrunken log2 fold change” value was 0.196.

RRIRCRPPRLPRPRPRPPVLPRP: the “shrunken log2 fold change” value was -0.169.

Regarding RRIRIRPPRLPRPRPRPKVPPRP, the “shrunken log2 fold change” value is 0.167.

Consider RRIRTRPPRLPRPRPRPQKFPRP, for which the “shrunken log2 fold change” value was -0.632.

For RRIRIRPPRLPRPRPRPIEKPRP, the “shrunken log2 fold change” value was -0.0304.

Take RRIRARPPRLPRPRPRPYMNPRP: the “shrunken log2 fold change” value was -0.337.

Take RRIRFRPPRLPRPRPRPMCNPRP: the “shrunken log2 fold change” value is -0.24.

Regarding RRIRLRPPRLPRPRPRPFWMPRP, the “shrunken log2 fold change” value was -0.0876.

With RRIRQRPPRLPRPRPRPVVWPRP, the “shrunken log2 fold change” value turned out to be 0.586.

Turning to RRIRHRPPRLPRPRPRPHRYPRP, the “shrunken log2 fold change” value is -0.136.

Consider RRIRERPPRLPRPRPRPTDFPRP, for which the “shrunken log2 fold change” value was -0.13.

On to RRIRQRPPRLPRPRPRPFWRPRP, for which the “shrunken log2 fold change” value was -0.044.

On to RRIRDRPPRLPRPRPRPGQMPRP, for which the “shrunken log2 fold change” value is -0.0138.

Consider RRIRDRPPRLPRPRPRPWVAPRP, for which the “shrunken log2 fold change” value was -0.0114.

Regarding RRIRFRPPRLPRPRPRPISRPRP, the “shrunken log2 fold change” value was 0.0107.

RRIRYRPPRLPRPRPRPYWMPRP: the “shrunken log2 fold change” value is -0.686.

As to RRIRKRPPRLPRPRPRPNVRPRP, the “shrunken log2 fold change” value is -0.0184.

Consider RRIRWRPPRLPRPRPRPFGEPRP, for which the “shrunken log2 fold change” value is 0.439.

As to RRIRYRPPRLPRPRPRPHMKPRP, the “shrunken log2 fold change” value was -0.489.

Consider RRIRIRPPRLPRPRPRPEGIPRP, for which the “shrunken log2 fold change” value is -0.0831.

As to RRIRWRPPRLPRPRPRPDHQPRP, the “shrunken log2 fold change” value was -0.197.

Take RRIRWRPPRLPRPRPRPVFDPRP: the “shrunken log2 fold change” value turned out to be 0.138.

On to RRIRPRPPRLPRPRPRPTLYPRP, for which the “shrunken log2 fold change” value was determined as 0.221.

Regarding RRIRIRPPRLPRPRPRPLNWPRP, the “shrunken log2 fold change” value was -0.291.

Take RRIRVRPPRLPRPRPRPHTAPRP: the “shrunken log2 fold change” value was -0.00836.

Source of the values: the supplement of paper PMC9112550, “Optimization of the antimicrobial peptide Bac7 by deep mutational scanning” (BMC Biology, 2022).
